How the values were obtained:
[1] = substrate: CCC=CCC=CCC=CCC=CCC=CCC=CCCC(=O)O; assay: Kinetics parameters of 15s-LOX (UV 270 nm, Michaelis-Menten); assay type: biochemical, Glycine max (soybean); details: other: 15s-LOX, substrate 0.02-0.2 mM, borate buffer pH 9, 20 °C
Protocol: (§1) The activity of 15-sLOX was monitored on a Beckman Coulter DU730 Life Sciences UV-visible spectrometer at a wavelength of 270 nm monitoring the conjugated triene structure in the dihydroxylation products. For the measurements a reaction mixture of DHA or deuterated DHA (0.02 mM; 0.04 mM; 0.1 mM and 0.2 mM) was prepared in 750 µL sodium borate buffer (50 mM, pH 9) by ultrasonification for 10 s. The reaction was subsequently initiated by the addition of 10 µL 15-sLOX (4 mg/mL) to make a total volume of 760 µL in a Hellma CEL2056 quartz cuvette with 1 cm path length (20 °C). The initial reaction rates (V(0)), derived from the recorded UV-absorbance using the law of Lambert-Beer (molar extinction coefficient = 40,000), were plotted against the respective DHA concentrations and fitted to Michaelis-Menten kinetics in GraphPad Prism 7.0. All V(0) values were determined in triplicate and the average of three independent experiments was plotted against the substrate concentrations to yield Michaelis-Menten kinetics.

[2] = substrate: CC/C=C\C/C=C\C/C=C\C/C=C\C/C=C\C/C=C\CCC(=O)O; assay: as above; assay type: biochemical, Glycine max (soybean); details: other: 15s-LOX, substrate 0.02-0.2 mM, borate buffer pH 9, 20 °C
Protocol: as §1

B1: 15-sLOX (Glycine max) (protein)
chain: MFSAGHKIKGTVVLMPKNELEVNPDGSAVDNLNAFLGRSVSLQLISATKADAHGKGKVGKDTFLEGINTSLPTLGAGESAFNIHFEWDGSMGIPGAFYIKNYMQVEFFLKSLTLEAISNQGTIRFVCNSWVYNTKLYKSVRIFFANHTYVPSETPAPLVSYREEELKSLRGNGTGERKEYDRIYDYDVYNDLGNPDKSEKLARPVLGGSSTFPYPRRGRTGRGPTVTDPNTEKQGEVFYVPRDENLGHLKSKDALEIGTKSLSQIVQPAFESAFDLKSTPIEFHSFQDVHDLYEGGIKLPRDVISTIIPLPVIKELYRTDGQHILKFPQPHVVQVSQSAWMTDEEFAREMIAGVNPCVIRGLEEFPPKSNLDPAIYGDQSSKITADSLDLDGYTMDEALGSRRLFMLDYHDIFMPYVRQINQLNSAKTYATRTILFLREDGTLKPVAIELSLPHSAGDLSAAVSQVVLPAKEGVESTIWLLAKAYVIVNDSCYHQLMSHWLNTHAAMEPFVIATHRHLSVLHPIYKLLTPHYRNNMNINALARQSLINANGIIETTFLPSKYSVEMSSAVYKNWVFTDQALPADLIKRGVAIKDPSTPHGVRLLIEDYPYAADGLEIWAAIKTWVQEYVPLYYARDDDVKNDSELQHWWKEAVEKGHGDLKDKPWWPKLQTLEDLVEVCLIIIWIASALHAAVNFGQYPYGGLIMNRPTASRRLLPEKGTPEYEEMINNHEKAYLRTITSKLPTLISLSVIEILSTHASDEVYLGQRDNPHWTSDSKALQAFQKFGNKLKEIEEKLVRRNNDPSLQGNRLGPVQLPYTLLYPSSEEGLTFRGIPNSISI
Km [1]: 57.4 µM
Km ([2]; substrate D2-DHA): 36.3 µM
Km ([2]; substrate Natural DHA): 68 µM
